Laboratory results from patent US20250313627A1.

What was measured:
[1] = target: human ROR1 (Receptor Tyrosine Kinase-Like Orphan Receptor 1) on the cell surface (human) (UniProt Q01973); assay: flow cytometry, B16-F10 cells expressing human ROR1 (high density)
[2] = target: human ROR1 (Receptor Tyrosine Kinase-Like Orphan Receptor 1) on the cell surface (human) (UniProt Q01973); assay: as above; remark: listed apart in the source
[3] = target: human ROR1 (Receptor Tyrosine Kinase-Like Orphan Receptor 1) on the cell surface (human) (UniProt Q01973); assay: flow cytometry, LS174T cells expressing human ROR1 (low density)
[4] = target: human ROR1 (Receptor Tyrosine Kinase-Like Orphan Receptor 1) on the cell surface (human) (UniProt Q01973); assay: as above; remark: listed apart in the source
[5] = target: human ROR1 (Receptor Tyrosine Kinase-Like Orphan Receptor 1) on the cell surface (human) (UniProt Q01973); assay: flow cytometry, B16-F10 cells expressing human ROR1 (high density); remark: listed apart in the source
[6] = target: human ROR1 (Receptor Tyrosine Kinase-Like Orphan Receptor 1) on the cell surface (human) (UniProt Q01973); assay: as above; remark: listed apart in the source
[7] = target: human ROR1 (Receptor Tyrosine Kinase-Like Orphan Receptor 1) on the cell surface (human) (UniProt Q01973); assay: as above; remark: listed apart in the source
[8] = target: human ROR1 (Receptor Tyrosine Kinase-Like Orphan Receptor 1) on the cell surface (human) (UniProt Q01973); assay: as above; remark: listed apart in the source

Sequence of human ROR1 (Receptor Tyrosine Kinase-Like Orphan Receptor 1) on the cell surface (human) (Q01973 30-937): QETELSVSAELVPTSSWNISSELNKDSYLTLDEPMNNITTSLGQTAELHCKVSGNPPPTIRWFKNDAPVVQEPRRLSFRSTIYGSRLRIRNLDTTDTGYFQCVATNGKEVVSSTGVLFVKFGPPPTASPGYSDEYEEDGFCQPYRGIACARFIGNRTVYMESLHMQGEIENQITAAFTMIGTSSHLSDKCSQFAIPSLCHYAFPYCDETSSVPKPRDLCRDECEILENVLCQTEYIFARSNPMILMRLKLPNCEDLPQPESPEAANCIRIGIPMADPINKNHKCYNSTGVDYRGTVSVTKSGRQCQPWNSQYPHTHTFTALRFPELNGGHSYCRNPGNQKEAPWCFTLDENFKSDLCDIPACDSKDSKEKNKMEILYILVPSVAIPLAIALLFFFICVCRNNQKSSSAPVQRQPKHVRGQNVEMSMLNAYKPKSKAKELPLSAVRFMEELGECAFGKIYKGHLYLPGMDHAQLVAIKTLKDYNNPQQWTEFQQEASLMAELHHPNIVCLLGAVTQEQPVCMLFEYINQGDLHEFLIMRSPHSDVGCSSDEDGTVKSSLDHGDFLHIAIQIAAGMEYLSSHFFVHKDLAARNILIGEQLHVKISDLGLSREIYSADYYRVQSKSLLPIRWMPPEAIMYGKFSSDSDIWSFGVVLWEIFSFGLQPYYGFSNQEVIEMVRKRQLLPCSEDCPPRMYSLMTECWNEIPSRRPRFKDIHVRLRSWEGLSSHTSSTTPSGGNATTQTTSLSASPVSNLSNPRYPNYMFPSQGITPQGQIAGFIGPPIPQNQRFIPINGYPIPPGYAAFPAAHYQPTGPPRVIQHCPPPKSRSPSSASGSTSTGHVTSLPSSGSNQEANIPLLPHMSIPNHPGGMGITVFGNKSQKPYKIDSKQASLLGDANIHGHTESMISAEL

- MFI [1]: 21600
- MFI [2]: 35200
- MFI [3]: 36200
- MFI [4]: 7960
- MFI [5]: 27100
- MFI [6]: 38700
- MFI [7]: 19900
- MFI [8]: 416000
B1: anti-human ROR1 (clone 2A2)-PE (antibody, from another filing, V domains shown)
VH: QVQLQQSGAELVRPGASVTLSCKASGYTFSDYEMHWVIQTPVHGLEWIGAIDPETGGTAYNQKFKGKAILTADKSSSTAYMELRSLTSEDSAVYYCTGYYDYDSFTYWGQGTLVTVSA
VL: DIVMTQSQKIMSTTVGDRVSITCKASQNVDAAVAWYQQKPGQSPKLLIYSASNRYTGVPDRFTGSGSGTDFTLTISNMQSEDLADYFCQQYDIYPYTFGGGTKLEIK
